From patent US20240368264A1 (SHANGHAI NOVAMAB BIOPHARMACEUTICALS, published 2024)

B1: Bi-HuNb10-63 (VHH)
chain: EVQLLESGGGLVQPGGSLRLSCTASGFTLDDSDMGWYRQAPGDECELVSTISSLGGTYYADSVKGRFTISHDNAKNTVYLQMNSLKPHDTAVYYCAPGTDRYSDCPNEYSVWGQGTLVTVSSGGGGSGGGGSGGGGSGGGGSEVQLLESGGGLVQPGGSLRLSCTASGFTLDDSDMGWYRQAPGDECELVSTISSLGGTYYADSVKGRFTISHDNAKNTVYLQMNSLKPHDTAVYYCAPGTDRYSDCPNEYSVWGQGTLVTVSS
notes: also called humanized bivalent antibody; bivalent single domain antibody
B2: Bi-HuNb5-31 (VHH)
chain: EVQLLESGGGLVQPGGSLRLSCTASGFTSGGSDMGWYRQAPGNECDLVSYISSDGSTYYADSVKGRFTISQDNAKNTVYLQMNSLKPEDTAVYYCAATDYGLGPPPSSTGQCYGMDYWGKGTLVTVSSGGGGSGGGGSGGGGSGGGGSEVQLLESGGGLVQPGGSLRLSCTASGFTSGGSDMGWYRQAPGNECDLVSYISSDGSTYYADSVKGRFTISQDNAKNTVYLQMNSLKPEDTAVYYCAATDYGLGPPPSSTGQCYGMDYWGKGTLVTVSS
notes: as for B1
B3: Bi-HuNb7-54 (VHH)
chain: EVQLLESGGGLVQPGETLRLSCTASGFTFDDSDMGWYRQAPGNECELVSIISSDGMTYYADSVKGRFTISQDNAKNTVYLQMNSLKPEDTAVYYCAATKYSSDYDVAEDWRRGVCGDMDYWGKGTLVTVSSGGGGSGGGGSGGGGSGGGGSEVQLLESGGGLVQPGETLRLSCTASGFTFDDSDMGWYRQAPGNECELVSIISSDGMTYYADSVKGRFTISQDNAKNTVYLQMNSLKPEDTAVYYCAATKYSSDYDVAEDWRRGVCGDMDYWGKGTLVTVSS
notes: as for B1
B4: Nb10-63 (VHH)
VHH: QVQLQESGGGSVQAGGSLRLSCTASGFTLDDSDMGWYRQAPGDECELVSTISSLGGTYYADSVKGRFTISHDNAKNTVYLQMNSLKPHDTAVYYCAPGTDRYSDCPNEYSVWGQGTQVTVSS
notes: Camel nanobody before humanization
B5: Nb7-54 (VHH)
VHH: QVQLQESGGGSVQAGETLRLSCTASGFTFDDSDMGWYRQAPGNECELVSIISSDGMTYYADSVKGRFTISQDNAKNTVYLQMNSLKPEDTAVYYCAATKYSSDYDVAEDWRRGVCGDMDYWGKGTQVTVSS
notes: as for B4
B6: Nb5-31 (VHH)
VHH: QVQLQESGGGSVQAGGSLRLSCTASGFTSGGSDMGWYRQAPGNECDLVSYISSDGSTYYADSVKGRFTISQDNAKNTVYLQMNSLKPEDTAVYYCAATDYGLGPPPSSTGQCYGMDYWGKGTQVTVSS
notes: as for B4

Experiments:
human TSLP factor = human TSLP factor (human, UniProt Q969D9 29-159); assay: cell-based or functional assay
[1] = biological target: Human TSLP antigen protein (human, UniProt Q969D9 29-159); assay: blocking ELISA: human TSLP coated, antibody dilutions with 0.02 ug/mL biotinylated TSLPR, SA-HRP, OD450; blocked partner: biotinylated TSLPR protein
Method: The above purified bivalent humanized antibodies were subjected to ELISA to detect blocking activity. […] After washing 5 times with PBST, 100 uL of TMB color-substrate solution was added and colour development at 37° C. for 10 min. The reaction was terminated by adding 2M H₂SO₄ 50 uL/well, and the absorption value was measured at 450 nm on an microplate reader.

TSLP-Fc antigen = assay: BLI (Fortebio): antibody captured on Protein A probe, TSLP-Fc antigen 2-fold from 20 nM, global fit
Method: The binding kinetics of 14 blocking TSLP nanobodies were measured by Bio-layer interferometry (BLI). For kinetic measurements, candidate antibodies were diluted to 5 ug/mL in PBST buffer, TSLP-Fc antigen diluted in PBST buffer in 2-fold gradients in six concentration gradients (2-fold gradient dilution from 20 nM), and set the instrument operating conditions: Temperature 30° C., Shake speed 1000 rpm. Antibodies were captured using a probe already encapsulated with Protein A, capture time 60 s; Binding of gradient diluted antigen, binding time 240 s; dissociation time 300 s; 10 mM glycine (pH 1.7) regenerated 2 times for 5 s each. Fortebio Analysis version 9.0 was used to perform the analysis, Global mode was fitted and the binding rate (Kon), dissociation rate (Kdis) and dissociation constant KD were calculated.

TSLP-Biotin protein = TSLP-Biotin protein (UniProt Q969D9 29-159, biotinylated (site not stated)); assay: flow cytometry blocking assay: antibody diluted 2-fold from 20 ug/mL with TSLP-Biotin on HEK293F/TSLPR transient cells, SA-PE, MFI; blocked partner: TSLPR on the cells
Method: The above 31 purified antibodies were again subjected to flow cytometry blocking activity assay. […] Centrifuged again and discard supernatant, add 200 uL PBS per well to resuspend cells, flow cytometry was performed to detect PE signal of sample.

Row | Binder | IC50 of inhibition of hTSLP-induced pSTAT5 (PE MFI, flow cytometry) in BaF3/TSLPR-IL7R cells (human TSLP factor) [ug/ml] | IC50 [1] [µg/mL] | Kd (TSLP-Fc antigen) [nM] | koff (TSLP-Fc antigen) [s⁻¹] | kon (TSLP-Fc antigen) [M⁻¹ s⁻¹] | IC50 (read off the curve) (TSLP-Biotin protein) [µg/mL]
1 | B1 | 0.472 | 0.0824 | – | – | – | –
2 | B2 | 0.0797 | 0.0759 | – | – | – | –
3 | B3 | 0.0198 | 0.141 | – | – | – | –
4 | B4 | – | – | 0.0945 | 0.000263 | 2.78e+06 | –
5 | B5 | – | – | 0.226 | 0.000588 | 2.61e+06 | ~0.2
6 | B6 | – | – | 0.115 | 0.000231 | 2.02e+06 | –
